Patent publication US20030082135A1, “Pathway of RANTES-mediated chemokine synthesis in astrocytes and methods of use therefor” (priority 2001, published 2003)

Assays:
[1] = tested on: primary neonatal mouse astrocyte cultures; test: RNase protection assay (RPA) for chemokine/cytokine transcripts in astrocyte cultures; format: cell-based
Protocol: Astrocyte isolation and culture. […] RNA isolation and RNase protection assay (RPA). […] RNase protection assays (RPA) for chemokine message were conducted with multi-probe templates according to the manufacture's protocol (RiboQuant assay kit, BD-PharMingen, San Diego, Calif.). Gels were scanned and radioactive bands quantitated using a phosphoimager (Molecular Dynamics, Sunnyvale, Calif.). Levels of uniformly expressed housekeeping genes large ribosomal subunit protein 32-3A (L32) or glyceraldehyde-3-phosphate dehydrogenase (GAPDH), were used for normalization. The value of each chemokine receptor band divided by the value of the indicated housekeeping gene band in the same sample yielded the relative intensity. Normalized receptor expression represents the ratio of the relative intensity following treatment with chemokine versus the relative intensity of medium alone. Treatment with pharmacological inhibitors. Astrocytes were washed and resuspended in serum-and insulin-free complete medium and starved overnight. Cells were treated at 37° C. for 1 h with 100 ng/ml Pertussis toxin (PTx) before addition of RANTES or IL-1. […] The cells were harvested after a 3 h incubation with RANTES; RNA was prepared and assayed by RPA.

[2] = tested on: MEK, ERK1/2, p90RSK, p38, SAPK/JNK phosphorylation in astrocytes; test: Western blotting of phosphorylated MAP kinase pathway proteins in astrocyte lysates; format: cell-based, mouse
Protocol: SDS-PAGE and Western blotting. Astrocytes were treated for the indicated time with media or 100 ng/ml RANTES, eotaxin, or other materials as indicated. Cells (3×10^5 in Examples 1-3, or 2×10^4 in later Examples) were resuspended in 100 μl buffer (50 mM HEPES, pH 7.5, 150 mM NaCl, 2 mM EDTA, 2 mM EGTA, 1% Triton X-100, 50 mM Sodium fluoride, 5 mM Sodium pyrophosphate, 50 mM Sodium β-glycerophosphate, 1 mM Sodium Ortho-vanadate, 1 mM DTT, 1 mM PMSF, 10 μg/ml Leupeptin, and 10 μg/ml Aprotinin). Protein concentration of the whole cell extract was determined by BCA protein assay kit (Pierce, Rockford, Ill.). Samples (10 μg) were loaded and separated on a 10% SDS-polyacrylamide gel. After transfer to Hybond ECL nitrocellulose membrane (Amersham Pharmacia Biotech Inc, Piscataway, N.J.) or Zeta-probe blotting membranes (Bio-Rad, Richmond Calif.) blots were blocked overnight with 5% BSA at 4° C., and probed with the antibody indicated. Antibody against unphosphorylated or phosphorylated erk (Cell Signaling, Beverly, Mass.) was used at 1 μg/ml. Appropriate anti-immunoglobulin reagents were used to develop the blots by enhanced chemiluminescence (Amersham Pharmacia Biotech Inc, Piscataway, N.J.).
Little is known about the signaling mechanisms involved in astrocyte respones to chemokines. To examine components of the RANTES signal transduction pathway, phosphorylation of the MAP kinase kinase (MEK) and mitogen activated protein (MAP) kinases was examined. To minimize basal kinase activity, astrocytes were starved of serum for at least 3 h before treatment with chemokine. Whole cell lysates were separated by SDS-PAGE and examined by Western blot. Antibodies that specifically react with phosphorylated MEK or phosphorylated extracellular signal-related kinase (ERK) were used to detect the active kinases.

PKA = PKA activity assay on lysates of treated astrocytes; format: cell-based, mouse
Protocol: PKA activity assay. PKA activity was determined using a commercially available kit (Calbiochem, San Diego, Calif.) according to manufacturer's recommendations. Primary mouse astrocytes were grown in 6-well plates and then stimulated as described and lysed in 100 μl buffer (same buffer used for Western blotting) for 30 min. Five μl of the lysates were incubated with 20 μl PKA reaction mixture at 30° C. for 30 min. The reaction was terminated by adding 10 μl stop solution and ^32P radioactivity was counted.

astrocytes [3] = tested on: astrocytes
[4] = tested on: CXCR4, CX3CR1, CCR1, CCR5 transcripts in astrocytes; test: RPA for chemokine receptor transcripts in astrocytes; format: cell-based, mouse; details: average, pooled results of 3-4 experiments
Protocol: RNA isolation and RNase protection assay (RPA). RNA was prepared as in Luo, Y., et al. 1999. J Immunol 163:3985. RNase protection assays (RPA) for chemokine message were conducted with multi-probe templates according to the manufacture's protocol (RiboQuant assay kit, BD-PharMingen, San Diego, Calif.). Gels were scanned and radioactive bands quantitated using a phosphoimager (Molecular Dynamics, Sunnyvale, Calif.). Levels of uniformly expressed housekeeping genes large ribosomal subunit protein 32-3A (L32) or glyceraldehyde-3-phosphate dehydrogenase (GAPDH), were used for normalization. The value of each chemokine receptor band divided by the value of the indicated housekeeping gene band in the same sample yielded the relative intensity. Normalized receptor expression represents the ratio of the relative intensity following treatment with chemokine versus the relative intensity of medium alone.
Treatment with the RANTES-related chemokines RANTES or eotaxin, or with TNF-α also found to down-regulate expression of CX3CR1 transcripts. In addition, CXCR4 mRNA levels were decreased, while the levels of CCR1 transcripts were elevated. In contrast, little or no regulation of CCR5 was noted. The pooled results of 3-4 experiments indicate eotaxin caused an average 60% decrease in CXCR4 (P less than 0.01) and a 70% decrease in CX3CR1 mRNA (P less than 0.02) (FIG. 8.B). The effects of RANTES stimulation were similar with an average 70 and 90% reduction in CXCR4 and CX3CR1 transcripts, respectively (P less than 0.01).

[5] = tested on: cultured mouse astrocytes; test: RT-PCR for KC message in astrocytes; format: cell-based
astrocytes [6] = test: ELISA of KC, TNF-α and MCP-1 protein in astrocyte culture supernatants; format: cell-based, mouse; details: 48 h, 1.5 to 100 ng/ml tested

Molecule: O=C1Nc2ccc(I)cc2/C1=C/c1cc(Br)c(O)c(Br)c1 [Raf-1 inhibitor, reference compound]
- effect on RANTES-induced chemokine/cytokine gene expression ([1]; increasing doses, 1 h pretreatment, 100 ng/ml RANTES 3 h): blocked gene expression in a dose dependent fashion
- effect on MEK and erk1/2 phosphorylation induced by RANTES [2]: blocked
- effect on PKA activity (PKA): neither U0126 nor Raf-1 inhibitor decreased PKA activity
- effect on astrocyte viability or expression of the housekeeping genes L32 and GAPDH (astrocytes [3]): failed to affect

B1: eotaxin: recombinant mouse chemokine, RANTES-related, purchased from R&D System (protein, UniProt P48298 24-97, looked up)
Eotaxin: HPGSIPTSCCFIMTSKKIPNTLLKSYKRITNNRCTLKAIVFKTRLGKEICADPKKKWVQDATKHLDQKLQTPKP
- production of chemokine transcripts by astrocytes from mice deficient for CCR1, CCR2, CCR3, or CCR5 ([1]; 100 ng/ml): specifically responded
- expression of TNF-α, RANTES, KC, MIP-1α, MIP-2, and MCP-1 transcripts ([1]; BALB/cJ neonatal astrocytes, chemokine for 6 h): up-regulated
- ability to induce chemokine transcripts after boiling ([1]; boiled for 30 min before incubation with astrocytes): completely destroyed
- decrease in CX3CR1 mRNA [4]: 70%
- decrease in CXCR4 mRNA [4]: 60%
- synthesis of KC message [5]: induce synthesis of KC message
- concentration inducing KC protein (astrocytes [6]): ≥ 25 ng/mL
